{
  "source": "the supplement of paper PMC9428881",
  "assay": "background-corrected fluorescence of 3'-dye-labeled ssDNA relative to brightest sequence (3'-GCGCG) (fraction); higher = brighter dye fluorescence (less quenching)",
  "in_short": "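Single-stranded DNA was built on glass slides by light-directed phosphoramidite synthesis, ending in a 3' Cy3 or Cy5 dye beside each of 1024 permuted pentamers. Arrays were washed in acetonitrile for 2 h at r.t., then scanned at 532 or 635 nm before and after overnight ethylenediamine/ethanol deprotection. Each value averages 10 features per array and at least 3 syntheses. Fluorescence, corrected by subtracting unlabeled-oligo background, is scaled to the brightest sequence.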",
  "note": "± gives the standard error.",
  "data": [
    {"sequence": "TTTTTGCATGATCATCATGATTTTTTTTTTTTTTTTCGGC [CGGCT]", "values": [
      {"measurement": "background-corrected fluorescence", "setting": "dye: Cy3 (3' terminal)", "result": "0.546 ± 0.031"},
      {"measurement": "background-corrected fluorescence", "setting": "dye: Cy5 (3' terminal)", "result": "0.47 ± 0.042"}
    ]},
    {"sequence": "TTTTTTGATGATGAGCATCATTTTTTTTTTTTTTTCCCTG [GTCCC]", "values": [
      {"measurement": "background-corrected fluorescence", "setting": "dye: Cy3 (3' terminal)", "result": "0.528 ± 0.048"},
      {"measurement": "background-corrected fluorescence", "setting": "dye: Cy5 (3' terminal)", "result": "0.364 ± 0.024"}
    ]},
    {"sequence": "TTTTTTGCTCATGATCATGCTTTTTTTTTTTTTTTAGCGA", "values": [
      {"measurement": "background-corrected fluorescence", "setting": "dye: Cy3 (3' terminal)", "result": "0.708 ± 0.033"},
      {"measurement": "background-corrected fluorescence", "setting": "dye: Cy5 (3' terminal)", "result": "0.58 ± 0.052"}
    ]},
    {"sequence": "TTTTTGCATGATGAGCATGATTTTTTTTTTTTTTTTCCTC [CTCCT]", "values": [
      {"measurement": "background-corrected fluorescence", "setting": "dye: Cy3 (3' terminal)", "result": "0.351 ± 0.02"},
      {"measurement": "background-corrected fluorescence", "setting": "dye: Cy5 (3' terminal)", "result": "0.266 ± 0.019"}
    ]},
    {"sequence": "TTTTTTGCGCATGCTGCTCATTTTTTTTTTTTTTTATAAG [GAATA]", "values": [
      {"measurement": "background-corrected fluorescence", "setting": "dye: Cy3 (3' terminal)", "result": "0.532 ± 0.019"},
      {"measurement": "background-corrected fluorescence", "setting": "dye: Cy5 (3' terminal)", "result": "0.429 ± 0.031"}
    ]},
    {"sequence": "TTTTTTCATGAGCATCATGATTTTTTTTTTTTTTTGCTGC [CGTCG]", "values": [
      {"measurement": "background-corrected fluorescence", "setting": "dye: Cy3 (3' terminal)", "result": "0.509 ± 0.031"},
      {"measurement": "background-corrected fluorescence", "setting": "dye: Cy5 (3' terminal)", "result": "0.403 ± 0.029"}
    ]},
    {"sequence": "TTTTTTGATCATGCTCATCATTTTTTTTTTTTTTTCGAGG [GGAGC]", "values": [
      {"measurement": "background-corrected fluorescence", "setting": "dye: Cy3 (3' terminal)", "result": "0.723 ± 0.029"},
      {"measurement": "background-corrected fluorescence", "setting": "dye: Cy5 (3' terminal)", "result": "0.534 ± 0.035"}
    ]},
    {"sequence": "TTTTTGCATGCTGCTGCTGCTTTTTTTTTTTTTTTTAAAA [AAAAT]", "values": [
      {"measurement": "background-corrected fluorescence", "setting": "dye: Cy3 (3' terminal)", "result": "0.631 ± 0.013"},
      {"measurement": "background-corrected fluorescence", "setting": "dye: Cy5 (3' terminal)", "result": "0.52 ± 0.028"}
    ]},
    {"sequence": "TTTTTTGATGATGATCATCATTTTTTTTTTTTTTTCCCGG [GGCCC]", "values": [
      {"measurement": "background-corrected fluorescence", "setting": "dye: Cy3 (3' terminal)", "result": "0.625 ± 0.027"},
      {"measurement": "background-corrected fluorescence", "setting": "dye: Cy5 (3' terminal)", "result": "0.562 ± 0.072"}
    ]},
    {"sequence": "TTTTTTCATGATGCTGATGCTTTTTTTTTTTTTTTGCACA [ACACG]", "values": [
      {"measurement": "background-corrected fluorescence", "setting": "dye: Cy3 (3' terminal)", "result": "0.483 ± 0.025"},
      {"measurement": "background-corrected fluorescence", "setting": "dye: Cy5 (3' terminal)", "result": "0.375 ± 0.026"}
    ]},
    {"sequence": "TTTTTGCATCAGCATGCTCATTTTTTTTTTTTTTTTGTAG [GATGT]", "values": [
      {"measurement": "background-corrected fluorescence", "setting": "dye: Cy3 (3' terminal)", "result": "0.535 ± 0.015"},
      {"measurement": "background-corrected fluorescence", "setting": "dye: Cy5 (3' terminal)", "result": "0.443 ± 0.064"}
    ]},
    {"sequence": "TTTTTTCAGCATCATCAGCATTTTTTTTTTTTTTTGTGGT [TGGTG]", "values": [
      {"measurement": "background-corrected fluorescence", "setting": "dye: Cy3 (3' terminal)", "result": "0.659 ± 0.02"},
      {"measurement": "background-corrected fluorescence", "setting": "dye: Cy5 (3' terminal)", "result": "0.544 ± 0.031"}
    ]},
    {"sequence": "TTTTTTCATGAGCATGCTGATTTTTTTTTTTTTTTGCTAC [CATCG]", "values": [
      {"measurement": "background-corrected fluorescence", "setting": "dye: Cy3 (3' terminal)", "result": "0.424 ± 0.02"},
      {"measurement": "background-corrected fluorescence", "setting": "dye: Cy5 (3' terminal)", "result": "0.338 ± 0.031"}
    ]},
    {"sequence": "TTTTTTGCTCATGCTCAGCATTTTTTTTTTTTTTTAGAGT [TGAGA]", "values": [
      {"measurement": "background-corrected fluorescence", "setting": "dye: Cy3 (3' terminal)", "result": "0.598 ± 0.017"},
      {"measurement": "background-corrected fluorescence", "setting": "dye: Cy5 (3' terminal)", "result": "0.503 ± 0.029"}
    ]},
    {"sequence": "TTTTTTCATGCTGATGCTGCTTTTTTTTTTTTTTTGACAA [AACAG]", "values": [
      {"measurement": "background-corrected fluorescence", "setting": "dye: Cy3 (3' terminal)", "result": "0.537 ± 0.032"},
      {"measurement": "background-corrected fluorescence", "setting": "dye: Cy5 (3' terminal)", "result": "0.415 ± 0.022"}
    ]},
    {"sequence": "TTTTTTCATCATGCTGCTGATTTTTTTTTTTTTTTGGAAC [CAAGG]", "values": [
      {"measurement": "background-corrected fluorescence", "setting": "dye: Cy3 (3' terminal)", "result": "0.463 ± 0.028"},
      {"measurement": "background-corrected fluorescence", "setting": "dye: Cy5 (3' terminal)", "result": "0.352 ± 0.019"}
    ]},
    {"sequence": "TTTTTGCAGCATCAGCATCATTTTTTTTTTTTTTTTTGTG [GTGTT]", "values": [
      {"measurement": "background-corrected fluorescence", "setting": "dye: Cy3 (3' terminal)", "result": "0.524 ± 0.031"},
      {"measurement": "background-corrected fluorescence", "setting": "dye: Cy5 (3' terminal)", "result": "0.397 ± 0.019"}
    ]},
    {"sequence": "TTTTTTGATGCTCATCAGCATTTTTTTTTTTTTTTCAGGT [TGGAC]", "values": [
      {"measurement": "background-corrected fluorescence", "setting": "dye: Cy3 (3' terminal)", "result": "0.693 ± 0.045"},
      {"measurement": "background-corrected fluorescence", "setting": "dye: Cy5 (3' terminal)", "result": "0.534 ± 0.037"}
    ]},
    {"sequence": "TTTTTTCAGCATGCGCATCATTTTTTTTTTTTTTTGTATG", "values": [
      {"measurement": "background-corrected fluorescence", "setting": "dye: Cy3 (3' terminal)", "result": "0.57 ± 0.011"},
      {"measurement": "background-corrected fluorescence", "setting": "dye: Cy5 (3' terminal)", "result": "0.419 ± 0.027"}
    ]},
    {"sequence": "TTTTTTGATCATCATGATGCTTTTTTTTTTTTTTTCGGCA [ACGGC]", "values": [
      {"measurement": "background-corrected fluorescence", "setting": "dye: Cy3 (3' terminal)", "result": "0.612 ± 0.015"},
      {"measurement": "background-corrected fluorescence", "setting": "dye: Cy5 (3' terminal)", "result": "0.493 ± 0.034"}
    ]},
    {"sequence": "TTTTTTGATCATGATCATCATTTTTTTTTTTTTTTCGCGG [GGCGC]", "values": [
      {"measurement": "background-corrected fluorescence", "setting": "dye: Cy3 (3' terminal)", "result": "0.814 ± 0.019"},
      {"measurement": "background-corrected fluorescence", "setting": "dye: Cy5 (3' terminal)", "result": "0.793 ± 0.047"}
    ]},
    {"sequence": "TTTTTGCATCATCAGCATCATTTTTTTTTTTTTTTTGGTG [GTGGT]", "values": [
      {"measurement": "background-corrected fluorescence", "setting": "dye: Cy3 (3' terminal)", "result": "0.568 ± 0.028"},
      {"measurement": "background-corrected fluorescence", "setting": "dye: Cy5 (3' terminal)", "result": "0.456 ± 0.022"}
    ]},
    {"sequence": "TTTTTTGAGCATGCTGCTGCTTTTTTTTTTTTTTTCTAAA [AAATC]", "values": [
      {"measurement": "background-corrected fluorescence", "setting": "dye: Cy3 (3' terminal)", "result": "0.569 ± 0.008"},
      {"measurement": "background-corrected fluorescence", "setting": "dye: Cy5 (3' terminal)", "result": "0.457 ± 0.021"}
    ]},
    {"sequence": "TTTTTTCAGCATGCTGATGATTTTTTTTTTTTTTTGTACC [CCATG]", "values": [
      {"measurement": "background-corrected fluorescence", "setting": "dye: Cy3 (3' terminal)", "result": "0.434 ± 0.028"},
      {"measurement": "background-corrected fluorescence", "setting": "dye: Cy5 (3' terminal)", "result": "0.311 ± 0.017"}
    ]},
    {"sequence": "TTTTTTGCGCAGCATGCGCATTTTTTTTTTTTTTTATTAT", "values": [
      {"measurement": "background-corrected fluorescence", "setting": "dye: Cy3 (3' terminal)", "result": "0.508 ± 0.031"},
      {"measurement": "background-corrected fluorescence", "setting": "dye: Cy5 (3' terminal)", "result": "0.418 ± 0.024"}
    ]},
    {"sequence": "TTTTTGCATGCTGCTGAGCATTTTTTTTTTTTTTTTAACT [TCAAT]", "values": [
      {"measurement": "background-corrected fluorescence", "setting": "dye: Cy3 (3' terminal)", "result": "0.492 ± 0.02"},
      {"measurement": "background-corrected fluorescence", "setting": "dye: Cy5 (3' terminal)", "result": "0.353 ± 0.027"}
    ]},
    {"sequence": "TTTTTTCATGATGCTGATGATTTTTTTTTTTTTTTGCACC [CCACG]", "values": [
      {"measurement": "background-corrected fluorescence", "setting": "dye: Cy3 (3' terminal)", "result": "0.391 ± 0.024"},
      {"measurement": "background-corrected fluorescence", "setting": "dye: Cy5 (3' terminal)", "result": "0.28 ± 0.022"}
    ]},
    {"sequence": "TTTTTGCAGCATGCTGCTGCTTTTTTTTTTTTTTTTTAAA [AAATT]", "values": [
      {"measurement": "background-corrected fluorescence", "setting": "dye: Cy3 (3' terminal)", "result": "0.63 ± 0.021"},
      {"measurement": "background-corrected fluorescence", "setting": "dye: Cy5 (3' terminal)", "result": "0.487 ± 0.042"}
    ]}
  ]
}
